Values belong to the substance of their own block, whether it stands above or below them.
Key:
[1] = tested on: STAT1 (Tyr701-phosphorylated; GAF) (human (U6A cells)); test: EMSA; conditions: Combined cytoplasmic and nuclear extracts of U6A cells (IFN-beta 500 U/ml or IFN-gamma 50 U/ml, 1 h), normalized for pY701-STAT1; 10 nM dsDNA probe; buffer …
importin-α5 = importin-α5 (UniProt P52294); test: anti-FLAG co-immunoprecipitation, immunoblot; conditions: reference: STAT1-YFP wild type; sites Y701
STAT1 N domain [2] = target: STAT1 N domain (UniProt P42224); test: AUC; sedimentation equilibrium of one N domain alone; homodimer to monomers; concentrations not given
STAT2 N domain (human) = STAT2 N domain (human) (UniProt P52630); test: as above
STAT1 N domain [3] = target: STAT1 N domain (UniProt P42224); test: AUC; sedimentation equilibrium; STAT1 N domain and mEGFP-tagged STAT2 N domain at final equimolar concentrations of 2.5, 10 and 40 uM; heterodimer to monomers

Sequence of STAT1 N domain (P42224 whole entry): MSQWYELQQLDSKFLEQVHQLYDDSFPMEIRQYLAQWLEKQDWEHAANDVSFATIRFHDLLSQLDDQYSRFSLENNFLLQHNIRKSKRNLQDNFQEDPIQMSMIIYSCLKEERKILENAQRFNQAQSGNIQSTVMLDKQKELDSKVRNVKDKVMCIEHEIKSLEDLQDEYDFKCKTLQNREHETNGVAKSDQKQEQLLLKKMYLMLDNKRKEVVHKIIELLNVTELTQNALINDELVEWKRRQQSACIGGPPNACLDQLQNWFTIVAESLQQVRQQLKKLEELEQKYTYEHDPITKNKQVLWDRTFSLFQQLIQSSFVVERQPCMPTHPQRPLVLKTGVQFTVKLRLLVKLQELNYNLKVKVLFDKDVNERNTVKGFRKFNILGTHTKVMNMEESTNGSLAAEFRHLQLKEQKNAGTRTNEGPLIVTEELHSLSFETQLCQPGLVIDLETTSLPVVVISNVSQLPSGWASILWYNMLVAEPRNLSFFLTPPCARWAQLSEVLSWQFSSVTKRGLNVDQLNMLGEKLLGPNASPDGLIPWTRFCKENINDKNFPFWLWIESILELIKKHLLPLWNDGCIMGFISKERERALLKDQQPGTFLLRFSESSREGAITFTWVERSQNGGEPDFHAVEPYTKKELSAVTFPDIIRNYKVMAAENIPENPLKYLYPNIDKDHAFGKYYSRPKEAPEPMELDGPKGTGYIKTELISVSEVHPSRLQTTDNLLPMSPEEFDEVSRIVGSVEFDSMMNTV

Substance: GAS (M67) probe
binding signal (% of GAF activity without STAT2) [1]: 25

binding against the reference (importin-α5): lost
Substance: STAT1 (from UniProt P42224) STAT1-YFP Y701F

Kd (STAT1 N domain [2]): 16.6 µM
Substance: STAT1 N domain (from UniProt P42224 1-750) (domain or fragment)

Kd (STAT2 N domain (human)): 704 µM
Kd (STAT1 N domain [3]): 0.01 µM
Substance: STAT2 N domain (from UniProt P52630 1-851) (domain or fragment)

Kd (STAT1 N domain [3]): 5480 µM
Substance: STAT2 N domain LL81,82AA (from UniProt P52630 1-851) (domain or fragment)
